Earlier results in PMC3057930.

Molecular target: CaMKIIp (UniProt Q9UQM7)
Sequence (Q9UQM7 293-312): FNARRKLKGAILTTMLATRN

(Ca2+)2-CaM76-148 76-148 (from UniProt P0DP29)
Kd: 950 nM
